From patent CN114106176A (SHENZHEN PHENPENG BIOTHERAPY CO LTD, dated 2022) come the findings set out here.

The test addresses T1, 人CD22胞外段缀合His标签 (hCD22-His, ACRO, CD2-H52H8) (human, UniProt P20273 20-687).
T1 construct: extracellular domain; Bought recombinant protein; also called 人类hCD22-His; not shown: His tag
T1 sequence (looked up): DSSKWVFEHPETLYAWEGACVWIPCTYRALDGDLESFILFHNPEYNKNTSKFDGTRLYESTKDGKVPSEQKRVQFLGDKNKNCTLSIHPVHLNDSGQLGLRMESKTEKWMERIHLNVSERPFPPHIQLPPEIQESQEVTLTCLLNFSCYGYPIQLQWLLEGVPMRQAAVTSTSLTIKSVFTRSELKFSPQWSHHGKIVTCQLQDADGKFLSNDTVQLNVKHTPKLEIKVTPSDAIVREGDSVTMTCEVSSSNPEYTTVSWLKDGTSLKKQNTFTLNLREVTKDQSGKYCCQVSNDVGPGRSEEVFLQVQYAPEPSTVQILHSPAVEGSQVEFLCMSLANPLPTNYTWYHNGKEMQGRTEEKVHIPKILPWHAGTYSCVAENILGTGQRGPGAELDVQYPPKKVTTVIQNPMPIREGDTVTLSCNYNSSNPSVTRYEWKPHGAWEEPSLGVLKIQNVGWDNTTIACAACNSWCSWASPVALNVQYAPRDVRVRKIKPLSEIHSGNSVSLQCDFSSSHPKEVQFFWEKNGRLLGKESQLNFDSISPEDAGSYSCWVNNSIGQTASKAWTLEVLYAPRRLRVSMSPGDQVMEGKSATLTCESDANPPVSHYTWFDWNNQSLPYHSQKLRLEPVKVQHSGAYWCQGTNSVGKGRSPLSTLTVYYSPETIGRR
The test can be described thus: ELISA, hCD22-His coated at 2 ug/ml, 3-fold antibody dilutions. (In an ELISA, binding on a coated surface is turned into a signal by an enzyme label.)

B1: 5CD22-111-1-C3 (antibody, mouse IgG1, kappa, V domains shown)
VH: EVKLEESGGGLVQPGGFMKLSCVASGFTFSNYWMNWVRQSPERGLEWVAEIRLKSNDYATHYAESVKGRFTISRDDSKSNVYLQMNNLRAEDTGIYYCTRVYYYGRDYAMDYWGQGTSVTVSS
VL: QIVLTQSPAIMSASLGERVTMTCTASSSVSSIYLHWYQQKPGSSPKLWIYSTSNLASGVPGRFSGSGSGTSYSLTISSMEAEDAATYYCHQYHRSPRTFGGGTKLEIKR
For the molecule B1, the binding result is recorded as “binds”.
